Results reported in patent US20230312744A1, “Modulatory Substance of Tumor Immune Microenvironment, and Preventive, Diagnostic and/or Therapeutic Utilization of the Same” (The University Of Tokyo, priority 2020, published 2023).

Assays:
[1] = tested on: PMN-MDSCs in the TIME; test: Flow cytometry of tumor-infiltrating cells from SL4 tumors (PMN-MDSCs in CD45+ cells); assay type: in vivo; details: 55F3 200 μg/mouse i.p., Day 13 after transplantation, ratio of PMN-MDSCs to CD45+ cells, vs control IgG
Description: In FIG. 13(a), SL4 cells (1×10^5 cells) were subcutaneously transplanted into C57BL/6 mice. The monoclonal antibody (55F3) (n=5) reacting against TCTP or control IgG (n=6) was intraperitoneally administered to the mice, every other day from one day after the transplantation (200 μg/mouse). The tumor volume was measured over time. In FIG. 13(b), on Day 13 after the transplantation, single cell suspensions were prepared from tumors, and were then subjected to a flow cytometry analysis (n=5). […] In FIG. 13(c), SL4 cells (1×10^5 cells) were subcutaneously transplanted into C57BL/6 mice (n=6). After the transplantation, DHA (50 mg/kg) was intraperitoneally […] into the mice every day. The tumor volume was measured over time. […] The tumor volume was measured over time. […] In FIG. 13(f), the amount of TCTP in sera derived from healthy subjects (people who are not affected with cancer) (n=5) and colorectal cancer patients (n=14) was quantified by immunoblotting. […] In FIG. 13 (g), (right view) the relative staining intensity by the anti-TCTP antibody was semi-quantified, and the staining intensity of the colorectal cancer tissues was compared with the staining intensity of the normal large intestinal tissues (n=45). […]
Tumor-infiltrating cells were recovered after subcutaneous transplantation of a tumor into mice, and were then analyzed by flow cytometry. […]

[2] = tested on: SL4 tumors; test: Proliferation assay of subcutaneously transplanted SL4 tumor in C57BL/6 mice (tumor volume); assay type: in vivo; details: 200 μg/mouse intraperitoneally every other day from Day 1 after transplantation, vs control IgG, FIG. 13(a)
Description: In FIG. 13(a), SL4 cells (1×10^5 cells) were subcutaneously transplanted into C57BL/6 mice. The monoclonal antibody (55F3) (n=5) reacting against TCTP or control IgG (n=6) was intraperitoneally administered to the mice, every other day from one day after the transplantation (200 μg/mouse). The tumor volume was measured over time. In FIG. 13(b), on Day 13 after the transplantation, single cell suspensions were prepared from tumors, and were then subjected to a flow cytometry analysis (n=5). […] In FIG. 13(c), SL4 cells (1×10^5 cells) were subcutaneously transplanted into C57BL/6 mice (n=6). After the transplantation, DHA (50 mg/kg) was intraperitoneally […] into the mice every day. The tumor volume was measured over time. In FIG. 13(d), SL4 cells (1×10^5 cells) were subcutaneously transplanted into C57BL/6 mice (n=6). […] The tumor volume was measured over time. […] In FIG. 13(f), the amount of TCTP in sera derived from healthy subjects (people who are not affected with cancer) (n=5) and colorectal cancer patients (n=14) was quantified by immunoblotting. […] In FIG. 13 (g), (right view) the relative staining intensity by the anti-TCTP antibody was semi-quantified, and the staining intensity of the colorectal cancer tissues was compared with the staining intensity of the normal large intestinal tissues (n=45). […]

B1: 55F3: Mouse monoclonal antibody against human TCTP peptide SEQ ID NO: 25; CDRs SEQ ID NO: 1-6, VH SEQ ID NO: 19, VL SEQ ID NO: 22 (antibody, listed as Mus musculus)
VH: MRVLILLWLFTAFPGILSDVQLQESGPGLVKPSQSLSLTCTATGYSIASDYAWNWIRQFPGNKLEWMGYINYSGSTGYNPSLKSRISITRDTSKNQFFLQLNSVTTEDTATYYCARFEAGYWGQGTTLTVSSAKTTPPSVYPLAPGSAAQTNSMVTLGCLVKGYFPEPVT
VL: MDMRTPAQFLGILLLWFPGIKCDIKMTQSPSSMSASLGERVTITCKASQDINRYLSWFQQKPGKSPKTLIYRANRLVDGVPSRFSGSGSGQDYSLTISSLEYGDMGIYYCLQYNEFPLTFGAGTKLELKRADAAPTVSIFPPSSEQLTSGGASVVCFLN
amount of PMN-MDSCs in the TIME [1]: decreased
proliferation speed of SL4 tumor cells (tumor volume) [2]: decreased
